Values quoted from earlier work, collected in publication PMC6627586.

Molecular target: ceruloplasmin (Homo sapiens) (UniProt P00450)
Sequence of UniProt P00450 (P00450 20-1065): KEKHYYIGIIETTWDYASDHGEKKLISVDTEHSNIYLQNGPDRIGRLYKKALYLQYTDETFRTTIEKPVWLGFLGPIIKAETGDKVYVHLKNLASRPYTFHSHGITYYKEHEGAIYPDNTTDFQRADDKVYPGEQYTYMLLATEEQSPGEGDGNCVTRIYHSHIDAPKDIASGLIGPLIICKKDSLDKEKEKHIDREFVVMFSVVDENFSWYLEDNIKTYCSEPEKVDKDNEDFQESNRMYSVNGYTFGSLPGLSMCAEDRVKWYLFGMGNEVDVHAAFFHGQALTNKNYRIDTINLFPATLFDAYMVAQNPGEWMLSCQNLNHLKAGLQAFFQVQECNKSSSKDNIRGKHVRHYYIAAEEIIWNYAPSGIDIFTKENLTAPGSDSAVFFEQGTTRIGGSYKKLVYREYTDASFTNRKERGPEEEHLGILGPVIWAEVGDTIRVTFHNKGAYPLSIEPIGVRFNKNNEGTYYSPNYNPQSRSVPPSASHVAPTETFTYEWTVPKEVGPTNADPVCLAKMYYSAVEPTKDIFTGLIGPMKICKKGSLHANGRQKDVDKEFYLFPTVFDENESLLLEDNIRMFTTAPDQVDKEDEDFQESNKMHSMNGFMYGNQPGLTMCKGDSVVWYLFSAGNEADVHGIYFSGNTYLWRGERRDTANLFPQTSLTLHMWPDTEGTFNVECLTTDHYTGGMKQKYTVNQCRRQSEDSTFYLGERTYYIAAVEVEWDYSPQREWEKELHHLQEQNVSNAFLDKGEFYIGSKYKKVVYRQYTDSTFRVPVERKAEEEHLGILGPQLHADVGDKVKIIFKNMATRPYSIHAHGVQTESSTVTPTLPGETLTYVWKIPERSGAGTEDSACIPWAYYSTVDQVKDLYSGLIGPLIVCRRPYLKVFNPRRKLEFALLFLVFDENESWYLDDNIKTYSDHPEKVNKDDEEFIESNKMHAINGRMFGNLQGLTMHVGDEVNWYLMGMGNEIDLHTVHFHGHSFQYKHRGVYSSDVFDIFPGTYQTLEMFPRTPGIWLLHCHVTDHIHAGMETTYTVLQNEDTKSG

Kd: 1500 nM
Substance: CTR1 second extracellular loop fragment (from UniProt O15431)
